# Measurements taken from US20240255507A1.
# Read-outs that look alike come from different tables or passages of the source.
# Columns and labels:
# BSA (bovine) [1] = molecular target: BSA (bovine) (UniProt P02769); assay: ELISA, BSA coated as negative control, binder 1 µg/mL, chemiluminescence
# BSA (bovine) [2] = molecular target: BSA (bovine) (UniProt P02769); assay: as above; remark: listed apart in the source
# Sequence of BSA (bovine) (P02769 25-607 limits assumed): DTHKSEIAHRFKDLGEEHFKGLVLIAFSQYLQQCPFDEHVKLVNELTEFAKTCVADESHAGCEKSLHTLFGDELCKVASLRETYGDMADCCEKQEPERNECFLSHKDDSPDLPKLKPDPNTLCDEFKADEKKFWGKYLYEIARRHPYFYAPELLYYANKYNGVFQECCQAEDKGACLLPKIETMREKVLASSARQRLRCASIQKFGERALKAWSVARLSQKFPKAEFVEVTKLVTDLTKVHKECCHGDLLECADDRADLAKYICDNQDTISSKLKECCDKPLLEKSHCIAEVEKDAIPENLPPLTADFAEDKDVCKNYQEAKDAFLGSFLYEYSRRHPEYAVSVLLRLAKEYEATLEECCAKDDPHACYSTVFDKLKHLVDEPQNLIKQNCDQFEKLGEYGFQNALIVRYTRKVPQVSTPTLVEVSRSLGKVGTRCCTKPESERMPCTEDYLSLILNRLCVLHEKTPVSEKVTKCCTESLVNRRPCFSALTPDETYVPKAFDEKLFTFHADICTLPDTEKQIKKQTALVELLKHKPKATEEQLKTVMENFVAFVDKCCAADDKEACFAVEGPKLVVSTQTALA
# Sequence of CR3022 (antibody) (VH): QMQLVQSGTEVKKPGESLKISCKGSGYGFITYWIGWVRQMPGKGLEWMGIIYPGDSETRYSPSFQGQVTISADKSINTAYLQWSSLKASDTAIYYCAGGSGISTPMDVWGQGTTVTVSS
# Sequence of CR3022 (antibody) (VL): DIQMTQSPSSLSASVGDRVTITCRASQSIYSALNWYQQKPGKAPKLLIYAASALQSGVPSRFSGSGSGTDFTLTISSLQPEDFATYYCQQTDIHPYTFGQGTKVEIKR
# Sequence of BD23 (antibody) (VH): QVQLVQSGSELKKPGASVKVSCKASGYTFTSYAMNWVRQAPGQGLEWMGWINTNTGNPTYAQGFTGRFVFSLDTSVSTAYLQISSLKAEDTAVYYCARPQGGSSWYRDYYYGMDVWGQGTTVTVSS
# Sequence of BD23 (antibody) (VL): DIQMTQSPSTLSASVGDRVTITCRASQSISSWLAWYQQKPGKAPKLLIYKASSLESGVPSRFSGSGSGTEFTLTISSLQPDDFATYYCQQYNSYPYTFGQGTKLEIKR
Substance,signal intensity (BSA (bovine) [1]),signal intensity (BSA (bovine) [2])
REGN10987 (antibody),43,63
CR3022 (antibody),63,53
REGN10933 (antibody),53,63
CV30 (antibody),73,33
BD23 (antibody),13,83
